Test [1] addresses T1, immunogen peptide QTDRMNLQTLRGYYNQSEAS (positions 72-91 in the heavy chain α1 domain of the HLA-G molecule) (human).
T1 construct: Synthetic peptide, coated on the ELISA plate at 2 µg/ml; also called antigen
T1 peptide: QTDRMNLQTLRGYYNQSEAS
Briefly: ELISA on coated peptide, 2-fold dilution series.
Description: (§1) The antigen (SEQ No.19 [sequence]) was diluted with coating solution to a final concentration of 2 μg/ml, 10 μL/well, overnight at 4° C.; then washed twice with the washing solution; blocked with the blocking solution at 200 μL/well, incubated at 37° C. for 2 hours; then washed once with the washing solution. The purified antibody was diluted gradiently with PBS by 2-fold starting from 200-fold, using PBS as the blank control, both 100 μL/well, incubated at 37° C. for 1 hour; and then washed 3 times with the washing solution. The secondary antibody diluted by 20,000-fold with PBS was added at 100 L/well, and incubated in a 37° C. incubator for 1 hour; taken out and washed 3 times with the washing solution. Then color development was performed with the developing solution at 100 μL/well for 5-15 minutes. Then 50 μL of stop solution was added, and the absorbance was measured at dual wavelengths (450, 630), and a plot was drawn for analysis.

In a further test the target is T2, HLA-G7 (human, UniProt P17693-7 25-116).
T2 construct: also called HLA-G isoform standard protein HLA-G7; K562-HLA-G7
Briefly: immunoblot of standard proteins, antibody 1.0 µg/ml. (In western blotting, separated proteins are transferred to a membrane and probed.)

Another test deals with T3, HLA-G2 (human, UniProt P17693-2 25-246).
T3 construct: also called HLA-G isoform standard protein HLA-G2; K562-HLA-G2
Put plainly: intracellular flow cytometry, FITC-labeled antibody on permeabilised K562-HLA-G2 cells. A general note: A flow cytometer gives signals particle by particle.

The next test addresses T4, HLA-G3 (human, UniProt P17693-3 25-154).
T4 construct: also called HLA-G isoform standard protein HLA-G3; K562-HLA-G3
Put plainly: intracellular flow cytometry, FITC-labeled antibody on permeabilised K562-HLA-G3 cells.

The next test deals with T5, HLA-G4 (human, UniProt P17693-4 25-246).
T5 construct: also called HLA-G isoform standard protein HLA-G4; K562-HLA-G4
Briefly: intracellular flow cytometry, FITC-labeled antibody on permeabilised K562-HLA-G4 cells.

The target in the next test is T6, HLA-G5 (human, UniProt P17693-5 25-319).
T6 construct: also called HLA-G isoform standard protein HLA-G5; K562-HLA-G5
Briefly: intracellular flow cytometry, FITC-labeled antibody on permeabilised K562-HLA-G5 cells.

For the next test, the target named is T7, HLA-G6 (human, UniProt P17693-6 25-227).
T7 construct: also called HLA-G isoform standard protein HLA-G6; K562-HLA-G6
Briefly: intracellular flow cytometry, FITC-labeled antibody on permeabilised K562-HLA-G6 cells.

Test [2] deals with T1, immunogen peptide QTDRMNLQTLRGYYNQSEAS …. Put plainly: ELISA on coated peptide, logistic fit, affinity constant = 150000 x dilution factor / antibody concentration. On the technique in general: ELISA stands for enzyme-linked immunosorbent assay.
Description: as §1

Description for HLA-G2: (§2) The cell cultures expressing the K562 (blank control), K562-HLA-G1, K562-HLA-G2, K562-HLA-G3, K562-HLA-G4, K562-HLA-G5, K562-HLA-G6 and K562-HLA-G7 in the logarithmic growth phase were used. The detection was conducted by intracellular flow cytometry.
(§3) Detection of intracellular molecule expression by flow cytometry: The cell cultures of K562, K562-HLA-G1, K562-HLA-G2, K562-HLA-G3, K562-HLA-G4, K562-HLA-G5, K562-HLA-G6, K562-HLA-G7 were collected in test tubes, centrifuged and washed twice with 2% BSA/PBS (250 g), then 250 μL of cell membrane-breaking agent (BD Cytofix/Cytoperm™) was added, fully mixed, and placed in the refrigerator at 4° C. for 20 minutes. Then 1 ml of BD Perm/Wash™ was added to centrifuge and wash twice (250 g).
Description for HLA-G3: as §2, §3
Description for HLA-G4: as §2, §3
Description for HLA-G5: as §2, §3
Description for HLA-G6: as §2, §3
Description for HLA-G7: After SDS-PAGE electrophoresis and transferred to PVDF membrane, the HLA-G isoform standard proteins HLA-G1, HLA-G2, HLA-G3, HLA-G4, HLA-G5, HLA-G6, HLA-G7 and HLA-G molecular standard proteins lacking al domain were blocked with 5% skimmed milk powder at room temperature for 4 hours, and washed with 0.2% TBS (Tween-20 PBS).

B1: monoclonal antibody YWHG-1 against HLA-G molecule (antibody, V domains shown)
VH: QLQESGTVLVRPGASVKLSCKASGYIFTSYWINWVKQRPGQGLEWIGNIYPSDSYTNFNQKFEDKATLTVDTSSSTAYMQFSSPTSEDSAVYYCTRFGYPFDYWGQGTTLTVSS
VL: DIVITQDELSLTVSLGDQASISCRTSQSFVHSNGNIYLEWFLQKPGQSPKLLIYKVSSRFSGVPDRFSGSGSGTDFTLKISRVEAEDLGIYYCFQGSHVPPTFGGGTKLEIK
notes: FITC-labeled in the flow cytometry assay; also called hybridoma CCTCC NO: 202120
For B1, in test [1], the “antibody dilution factor corresponding to 1/2 OD value” is 25600 fold dilution (of 1.9 mg/mL antibody). The binding result with HLA-G7, with HLA-G2, with HLA-G3, in the test with HLA-G4, with HLA-G5 and in the test with HLA-G6 was “binds” each time. The molecule also gave a Ka in test [2] of 2.02e+09 M⁻¹.
